Our source for the Kd values is publication PMC11551953, “Probing Electrostatic and Hydrophobic Associative Interactions in Cells” (The Journal of Physical Chemistry. B, 2024).

Where no end group is shown, it is not given here. Some results are limits rather than exact numbers.

Experiment [1] concerns the target GFP(ESE)4. The experiment can be described thus: other fluorescence titration; probe (1 μM) with BSA titrated up to 100 mg/mL (2 mM) in a 96-well plate; ratio of excitation at 405 nm/488 nm, emission 520 nm; 10 mM NaPi, 100 mM KCl, pH 7.4; room temperature; fitted to a Hill function; KD of BSA (+92e) with GFP(EEE)4 called apparent.
For experiment [2], the target named is GFP(ESS)4. The experiment is described as above.
Experiment [3] concerns the target cationic and hydrophobic probes. The description is as above.
The target of experiment [4] is GFP(EEE)4. The description is as above.
In experiment [5] the target is GFP(KLL)4. The experiment is described as above.
For experiment [6], the target named is T1, wtBSA(-17e), bovine serum albumin (bovine, UniProt P02769 25-607).
T1 construct: bovine serum albumin, wild type; also called wtBSA (−18e); BSA(-18e); source: bought: Sigma-Aldrich; further purified by repeated concentration on an Amicon 10 kD cutoff filter
The experiment can be described thus: other fluorescence titration; BSA titrated to 1 uM probe (His-tag removed) in a 96-well plate; excitation ratio 405 nm/488 nm at 520 nm emission; 10 mM NaPi, 100 mM KCl, pH 7.4, room temperature; ratio against BSA concentration fitted to a Hill function (k = KD, n = Hill coefficient); errors are errors in the fits. Conditions: both partners purified.

T1 sequence (P02769 25-607): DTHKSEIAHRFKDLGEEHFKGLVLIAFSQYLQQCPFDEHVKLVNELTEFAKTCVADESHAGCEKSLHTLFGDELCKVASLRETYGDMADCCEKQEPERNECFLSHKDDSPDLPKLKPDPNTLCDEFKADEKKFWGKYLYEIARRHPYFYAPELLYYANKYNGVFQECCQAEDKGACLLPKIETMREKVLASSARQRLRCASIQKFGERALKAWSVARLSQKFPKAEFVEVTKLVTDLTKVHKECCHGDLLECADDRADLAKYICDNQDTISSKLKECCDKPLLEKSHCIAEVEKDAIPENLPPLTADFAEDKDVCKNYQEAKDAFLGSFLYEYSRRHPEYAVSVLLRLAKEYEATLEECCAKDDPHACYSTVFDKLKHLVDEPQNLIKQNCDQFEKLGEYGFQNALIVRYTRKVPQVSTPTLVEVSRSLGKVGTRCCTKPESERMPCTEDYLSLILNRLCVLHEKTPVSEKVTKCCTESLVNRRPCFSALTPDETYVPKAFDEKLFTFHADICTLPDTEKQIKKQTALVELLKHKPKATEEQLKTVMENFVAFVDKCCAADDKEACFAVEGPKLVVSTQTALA
bovine serum albumin (BSA), wild type, sequence (P02769 25-607): as above

As for “bovine serum albumin (BSA), wild type (from UniProt P02769 25-607) (natural protein)”, the Kd was above 1000 µM in experiment [1]; above 1000 µM in experiment [2]; 100 to 200 µM in experiment [3]; above 1000 µM in experiment [4]; 100 to 200 µM in experiment [5].

On to KLLKLLKLLKLL (other, also: fused to cpGFP reporter, not in chain) [GFP(KLL)4], for which the Kd in experiment [6] is 110 µM.

For the molecule KKKKKKKKKKKK (other, also: fused to cpGFP reporter, not in chain) [GFP(KKK)4], the Kd in experiment [6] came to 170 µM.

Turning to KLKKLKKLKKLK (other, also: fused to cpGFP reporter, not in chain) [GFP(KLK)4], the Kd in experiment [6] came out at 220 µM.
